# What was measured:
# [1] = tested on: rat primary chondrocytes; assay: Serum-free culture of chondrocytes; format: cell-based; conditions: for promotion of cell expansion over the control cultures without rhMK: serum-free medium after 24 h in DMEM with 10% FBS
# Protocol: 1. Preparation of primary chondrocyte. The 8-week-old male SD rats were sacrificed under sterile conditions. The articular cartilage, fibrocartilage and elastic cartilage tissue were isolated from the femur joints, meniscus and outer ear respectively using a scalpel. The isolated cartilage were cut into small pieces, washed twice with phosphate buffered saline (PBS), and digested with trypsin (0.25% (w/v) trypsin/0.02% (w/v) EDTA) at 37° C. for 30 min. The articular cartilage and elastic cartilage were further digested with 0.2% type II collagenase for additional 16 h, and the fibrocartilage were further digested with 0.15% type I collagenase for additional 16 h. After digestion, three chondrocytes were passed through 100 μm filter (Falcon, USA) into 15 ml centrifuge tubes, centrifuged at room temperature at 2000 rpm for 5 min. Cells were resuspended in DMEM containing 10% FBS (fetal bovine serum). Trypan blue staining of the freshly isolated cells was used to monitor the percentage of live cells under the microscope. When the number of live cells is more than 95%, it was used for subsequent experiments.
# 4. Serum-free culture. The primary chondrocytes were cultured with DMEM containing 10% FBS for 24 h and washed with serum-free culture medium once. The cells were further cultured with DMEM medium with ITS+1 (composed of insulin-transferrin-selenium, Sigma, USA). […] Cell medium was changed every two days. When cells grew to the confluence of 85% to 90%, they were collected by trypsin-digestion and subcultured as previously described.
# [2] = tested on: rat auricular chondrocytes; assay: Phenotype of chondrocytes in monolayer culture (semi-quantitative PCR of Col2a1, collagen II immunohistochemical staining); format: cell-based
# Protocol: 3. Culture of primary chondrocytes in monolayer. Three types of primary chondrocytes were suspended in DMEM medium containing 10% FBS, adjusted to 5×10^4 cells/ml, added to 6-well plate with 2 ml medium/well, and incubated in 37° C. at 5% CO2. Experiment was divided into two groups: control group and experimental group (with 3 μg/ml rhMK). Cell medium was changed every two days. When the cells grew to the confluence of 85% to 90%, the cells were collected by trypsin digestion, washed in PBS by centrifugation. The cells were resuspended in DMEM containing 10% FBS. Cell survival was monitored by trypan blue staining. Part of the cells were used for cell passage; some were for RNA extraction; some were cytospined onto a glass slide for later immunohistochemical staining and the slides were stored at −80° C. Primary cells or passage 0 (P0) were cultured for 7 days. The newly passaged cells were further cultured in a 6-well plate for 3 days which was then collected by trypsin-digestion and marked as passage P1. The cell amplification at each passage=total number of cells at output/total number of cells at initial input. 6. Immunohistochemical staining. […] RNA extraction and semi-quantitative PCR. […] PCR products were separated on 1.5% (w/v) agarose gels and quantified after staining with ethidium bromide in comparison with internal control gene expression of β-actin.
# [3] = tested on: ACLT-induced rat knee cartilage damage; assay: Osteoarthritis induced by anterior cruciate ligament transection (ACLT) of rat knee, intra-articular rhMK; format: in vivo, SD rats
# Protocol: Method. 7-week-old male SD rats (250-330 g weight) were anesthetized with 3% pentobarbital sodium (30 mg/kg) by intraperitoneal injection. After anesthesia, the skin was prepared on both sides of the knees. With conventional surgical sterilization and under sterile conditions, the skin and subcutaneous tissue of the knees was cut open from the middle of front knee. The joint capsule was cut along the inner side of the white patellar tendon resulting in patellar dislocation. The anterior cruciate ligament was identified and cut with ophthalmic scissors. The knee was straightened, the patella was relocated, and the wound was sutured layer by layer. Amikacin (100,000 U/ml, injection concentration of 10 mg/kg, a dose of 1 μl/10 g body weight) was injected every day for 4 days to prevent the wound site infection. 14 weeks after the surgery, saline or rhMK was injected into the knee-articular cavity. The rats in sham group without ACLT surgery were not treated; The rats in the ACLT/saline group were injected with 100 μl saline; The rats in ACLT/rhMK-L group were injected with 100 μl rhMK (58.3 μg/kg); In ACLT/rhMK-H group, 100 μl rhMK (525 μg/kg) was given. The injections were given three times one week and continued for two weeks. The rats were maintained in cages with free movement. The rats were sacrificed 2 or 6 weeks after the initiation of the treatments. […]
# [4] = tested on: full-thickness defect of rabbit knee articular cartilage; assay: Full-thickness cartilage defect of rabbit knee joint, intra-articular rhMK; format: in vivo, New Zealand white rabbits; conditions: rabbit knee full-thickness cartilage damage model, 18 samples, 13 recovered; no recovery in saline control sides, P<0.01
# Protocol: Method. 2-month-old male New Zealand white rabbits (2.0˜2.5 kg weight) were anesthetized with 3% pentobarbital sodium (30 mg/kg) by ear vein injection. After anesthesia, prepare the skin on both sides of the knees were prepared for sterilization. With conventional surgical sterilization and under sterile conditions, the inner side of knees was cut to expose the femoral condyle surface. The full-thickness cartilage injury was made on the femoral condyle surface for both sides of the rabbit knees using an electrical drill. The cartilage hole was 3 mm in diameter and 4 mm in depth. The wound was closed with 4-0 lines. 400,000 units penicillin was injected daily for one week to prevent the wound site infection. 24 hours after surgery, normal saline or rhMK was injected into the knee articular cavity. The injection volume was 0.5 ml, three times a week for 2 weeks. rhMK was injected into one side of the rabbit knee joint, the other side was injected with saline as control. The rabbits were kept in cages and moved freely without fixation of the injured knees. After 2, 4, 6 and 12 weeks, rabbits were sacrificed. Cartilage tissues of the knee joint were removed for routine biopsy. The tissue sections were prepared for H&E, and fast green—Safranin O staining. The histological observation and evaluation were conducted under microscope.
molecule,measurement,setting,value
"rhMK: recombinant human midkine mature protein (SEQ ID NO.1) expressed in E. coli and purified by ion-exchange chromatography (protein, listed as Homo sapiens) MKKKDKVKKGGPGSECAEWAWGPCTPSSKDCGVGFREGTCGAQTQRIRCRVPCNWKKEFGADCKYKFENWGACDGGTGTKVRQGTLKKARYNAQCQETIRVTKPCTPKTKAKAKAKKGKGKD",promotion of cell expansion over the control cultures without rhMK,[1]; passage 1,34%
same,promotion of cell expansion over the control cultures without rhMK,[1]; passage 2,51%
same,promotion of cell expansion over the control cultures without rhMK,[1]; passage 3,18%
same,cell attachment and proliferation in serum-free medium,"[1]; three types of chondrocytes cultured directly in serum-free medium, rhMK 3 μg/ml",did not make the cell attachment and proliferation
same,effect on Col2a1 expression (semiquantitative PCR),[2]; auricular chondrocyte after one passage,inhibited the decreasing of the Col2a1
same,chondrocytes stained collagen II positive,"[2]; auricular chondrocytes, passage one, rhMK group, not detected without rhMK",about 50%
same,histological scores,"[3]; ACLT/rhMK groups (58.3 and 525 μg/kg intra-articular) versus ACLT/saline group, P<0.05 Kruskal-wallis Test",statistically lower than that of the ACLT/saline group
same,regenerated cartilage layer thickness (histology),"[3]; ACLT/rhMK groups versus ACLT/saline group, 18 weeks after ACLT surgery",significantly thicker than that of ACLT/saline group
same,rate of recovery in the rhMK treated side,[4],72.2%

# From patent US9283300B2, “Use of midkine protein and the protein-containing medical device” (GENERAL REGENERATIVES, LTD, priority 2009, dated 2016)
